The values that follow come from patent US20190038762A1 (Takeda / Millennium, published 2019).

The target of the assay is T1, guanylyl cyclase C (GCC), myc-tagged, full-length, expressed on HEK293-GCC#2 cells (UniProt P25092 24-1073, limits assumed).
T1 construct: whole, on cells; also called GCC antigen; GCC-expressing cells
In words: indirect immunofluorescence flow cytometry on HEK293-GCC#2 cells. (In general: A flow cytometer gives signals particle by particle.)

T1 sequence (P25092 24-1073 limits assumed): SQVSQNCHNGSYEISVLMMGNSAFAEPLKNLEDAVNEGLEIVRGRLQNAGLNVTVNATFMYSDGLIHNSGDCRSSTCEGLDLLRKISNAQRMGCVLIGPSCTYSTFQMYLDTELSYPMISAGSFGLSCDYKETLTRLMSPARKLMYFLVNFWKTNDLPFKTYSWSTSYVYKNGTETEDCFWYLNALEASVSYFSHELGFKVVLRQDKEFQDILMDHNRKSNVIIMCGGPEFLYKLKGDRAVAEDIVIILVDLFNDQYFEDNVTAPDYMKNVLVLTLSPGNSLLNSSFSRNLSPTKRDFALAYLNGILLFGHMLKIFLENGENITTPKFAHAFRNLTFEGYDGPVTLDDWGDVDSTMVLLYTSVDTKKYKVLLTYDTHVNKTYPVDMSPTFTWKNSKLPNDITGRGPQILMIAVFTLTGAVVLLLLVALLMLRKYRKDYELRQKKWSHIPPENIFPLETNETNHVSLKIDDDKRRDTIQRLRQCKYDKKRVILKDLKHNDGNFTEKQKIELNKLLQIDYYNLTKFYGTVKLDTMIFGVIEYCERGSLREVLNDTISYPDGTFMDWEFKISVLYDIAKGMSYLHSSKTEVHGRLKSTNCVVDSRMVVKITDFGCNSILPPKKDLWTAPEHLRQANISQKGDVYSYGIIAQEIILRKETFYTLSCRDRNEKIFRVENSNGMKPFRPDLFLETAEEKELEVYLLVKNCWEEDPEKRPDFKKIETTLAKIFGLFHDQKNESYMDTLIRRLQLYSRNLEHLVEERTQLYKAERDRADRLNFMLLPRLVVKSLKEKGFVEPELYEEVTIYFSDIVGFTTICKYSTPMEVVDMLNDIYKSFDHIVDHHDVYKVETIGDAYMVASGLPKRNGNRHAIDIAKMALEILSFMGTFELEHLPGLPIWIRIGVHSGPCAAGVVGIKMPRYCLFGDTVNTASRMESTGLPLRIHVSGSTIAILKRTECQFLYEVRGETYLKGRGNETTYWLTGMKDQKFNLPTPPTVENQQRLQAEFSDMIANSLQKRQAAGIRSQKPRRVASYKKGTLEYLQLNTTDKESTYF
Experimental: HEK293-GCC#2 and vector control cells were grown in standard cell culture medium supplemented with 10% fetal bovine serum (FBS). […] This centrifugation-wash step was repeated once more before cells were re-suspended at a concentration of 5×10⁶ cells/mL in 3% FBS/PBS, and added to the experimental wells of a V-bottom 96-well plate in 100 μL aliquots (˜500,000 cells). The plate was centrifuged for 5 min at 1200 rpm.
Following centrifugation, supernatant was removed from each well and replaced with 50 μL of primary antibody-drug conjugate solution. […] The 96-well dish was covered and incubated at 4° C. (on ice) for 1 hour before solutions were removed from the wells and the cells were washed twice in 100 μL of 3% FBS/PBS (without Ca²⁺ or Mg²⁺).
After completion of the second wash, 50 μL of secondary antibody solution was added to each experimental well, and the covered 96-well plate was placed at 4° C. (on ice) for 1 hour. The plate was then centrifuged, and the supernatant was replaced with 100 μL of 3% FBS/PBS (without Ca²⁺ or Mg²⁺). This centrifugation-wash step was repeated for a total of two cycles. The cells were finally reconstituted in 200 μL of PBS (without Ca²⁺ or Mg²⁺) and loaded onto the BD FACS Canto flow cytometer (BD Biosciences, Franklin Lakes, N.J.). Data were analyzed using FACS II Canto system software and the appropriate filter settings.

B1: 5F9 antibody (anti-GCC human monoclonal antibody 5F9, hIgG1/hKappa) (antibody, V domains shown)
VH: QVQLQQWGAGLLKPSETLSLTCAVFGGSFSGYYWSWIRQPPGKGLEWIGEINHRGNTNDNPSLKSRVTISVDTSKNQFALKLSSVTAADTAVYYCARERGYTYGNFDHWGQGTLVTVSS
VL: EIVMTQSPATLSVSPGERATLSCRASQSVSRNLAWYQQKPGQAPRLLIYGASTRATGIPARFSGSGSGTEFTLTIGSLQSEDFAVYYCQQYKTWPRTFGQGTNVEIKR
notes: The hybridoma antibody was IgG2, kappa; also called hu5F9; Human 5F9 antibody
On to B1, for which the “Affinity” value was 35 ng/mL.
